Results: patent US20200407445A1 (ITEOS THERAPEUTICS, published 2020)
Substitutions are numbered along the chain they refer to.

T1: Mouse TIGIT-Fc (mouse, UniProt P86176 29-148, limits assumed)
T1 construct: not shown: Fc part
T1 sequence (looked up): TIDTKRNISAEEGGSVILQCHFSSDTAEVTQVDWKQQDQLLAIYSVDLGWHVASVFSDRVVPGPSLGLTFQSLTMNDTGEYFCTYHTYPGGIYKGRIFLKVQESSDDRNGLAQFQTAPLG

T2: Human TIGIT-His (human, UniProt Q495A1 22-141, biotinylated in the ForteBio Fab assay)
T2 construct: bought (Creative Biomart); also called Biotinylated Human TIGIT HIS; TIGIT-His monomer; not shown: His tag
T2 sequence (looked up): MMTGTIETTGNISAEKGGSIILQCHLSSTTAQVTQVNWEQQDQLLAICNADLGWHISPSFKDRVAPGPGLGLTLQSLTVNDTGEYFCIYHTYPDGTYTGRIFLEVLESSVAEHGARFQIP

T3: mouse TIGIT expressed on cells (mouse, UniProt P86176 29-249)
T3 construct: whole, on cells; on Jurkat cells engineered to express mouse TIGIT; also called mTIGIT; Jurkat-mTIGIT
T3 sequence (looked up): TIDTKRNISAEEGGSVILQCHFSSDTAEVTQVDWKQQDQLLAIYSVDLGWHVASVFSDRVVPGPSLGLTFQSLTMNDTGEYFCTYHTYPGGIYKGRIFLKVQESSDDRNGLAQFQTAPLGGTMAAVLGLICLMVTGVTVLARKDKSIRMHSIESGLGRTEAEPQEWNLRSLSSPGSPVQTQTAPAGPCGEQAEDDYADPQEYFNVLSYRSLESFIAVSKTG

T4: Human TIGIT-Fc (human, UniProt Q495A1 22-141)
T4 construct: bought (Creative Biomart); also called TIGIT-Fc antigen; TIGIT-Fc fusion antigen; not shown: Fc part
T4 sequence (looked up): T2 sequence (looked up)

T5: human TIGIT expressed on cells (human, UniProt Q495A1 22-244)
T5 sequence (looked up): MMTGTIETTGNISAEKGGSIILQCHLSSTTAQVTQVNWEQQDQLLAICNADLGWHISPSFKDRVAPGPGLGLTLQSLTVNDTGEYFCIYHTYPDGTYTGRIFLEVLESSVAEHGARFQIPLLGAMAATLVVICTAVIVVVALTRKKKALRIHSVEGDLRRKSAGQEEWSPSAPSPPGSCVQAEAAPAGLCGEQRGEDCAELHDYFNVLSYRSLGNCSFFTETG

B1: Fab of anti-TIGIT clone 29523 (Fab, V domains shown)
VH: EVQLVESGGGVVQPGRSLRLSCAASGFTFGSYYMHWVRQAPGKGLEWVAVIWPDGSNKLYADSVKGRFTISRDNSKNTLYLQMNSLRAEDTALYYCAKPVPKSRALDVWGQGTMVTVSS
VL: DIQLTQSPSSVSASVGDRVTITCRASQGISSWLAWYQQKPGKAPKLLIYGASSLQSGVPSRFSGSGSGTDFTLTISSLQPEDFATYYCQQAFYLPWTFGGGTKVEIK
B2: Fab of anti-TIGIT clone 29494 (Fab, V domains shown)
VH: QVQLQESGPGLVKPSETLSLTCTVSGGSISSGSYYLAWIRQPPGKGLEWIGSIFRSGSTYYNPSLESRVTISVDTSKNQFSLKLSSVTAADTAVYYCAIEGANFKDFGYVAFDIWGQGTMVTVSS
VL: EIVMTQSPATLSVSPGERATLSCRASQSVSSNLAWYQQKPGQAPRLLIYGASTRATGIPARFSGSGSGTEFTLTISSLQSEDFAVYYCQQSPPWPRTFGGGTKVEIK
B3: Fab of anti-TIGIT clone 29499 (Fab, V domains shown)
VH: B2 VH with V2L, G32S, S33R, L36W, F54G, R55T, E66K, A90T, K105R
VL: B2 VL
B4: Fab of anti-TIGIT clone 31288 (Fab, V domains shown)
VH: B2 VH with V2L, M120T
VL: B2 VL
notes: Fab
B5: Fab of anti-TIGIT clone 26486 (Fab, V domains shown)
VH: QVQLQESGPGLVKPSETLSLTCAVSGYSISSGYYWAWIRQPPGKGLEWIGSIYHSGSTYYNPSLKSRVTISVDTSKNQFSLKLSSVTAADTAVYYCAIEGANYYDFGYVAFDIWGQGTMVTVSS
VL: B2 VL
B6: Fab of anti-TIGIT clone 32919 (Fab, V domains shown)
VH: B2 VH with V2L, M120T
VL: EIVLTQSPATLSLSPGERATLSCRASQSVSSYLAWYQQKPGQAPRLLIYDASNRATGIPARFSGSGSGTDFTLTISSLEPEDFAVYYCQQENPRPRTFGGGTKVEIK
notes: Fab
B7: Fab of anti-TIGIT clone 32931 (Fab, V domains shown)
VH: B2 VH with V2L, M120T
VL: B2 VL with Q27K, G50F, S91T, P92S
notes: Fab
B8: Fab of anti-TIGIT clone 26521 (Fab, V domains shown)
VH: QVQLVQSGAEVKKPGSSVKVSCKASGGTFSSYAISWVRQAPGQGLEWMGGIIPIFGTANYAQKFQGRVTITADESTSTAYMELSSLRSEDTAVYYCARLHLGSSAYYGMDVWGQGTTVTVSS
VL: DIQMTQSPSSLSASVGDRVTITCRASQSISSYLNWYQQKPGKAPKLLIYAASSLQSGVPSRFSGSGSGTDFTLTISSLQPEDFATYYCQQRYVFPPTFGGGTKVEIK
B9: Fab of anti-TIGIT clone 26518 (Fab, V domains shown)
VH: EVQLVESGGGLVQPGGSLRLSCAASGFTFSSYGMSWVRQAPGKGLEWVANIKQDGSEKYYVDSVKGRFTISRDNAKNSLYLQMNSLRAEDTAVYYCARVSYYYDSSKLRWAEYFQHWGQGTLVTVSS
VL: B6 VL with N53K, E91V, N92H, P93N, R94F, R96L
B10: anti-TIGIT antibody clone 26486 (IgG) (antibody, V domains shown)
VH: B5 VH
VL: B2 VL
notes: parent clone
B11: anti-TIGIT antibody clone 26521 (IgG) (antibody, V domains shown)
VH: B8 VH
VL: B8 VL
notes: parent clone
B12: anti-TIGIT antibody clone 26518 (IgG) (antibody, V domains shown)
VH: B9 VH
VL: B6 VL with N53K, E91V, N92H, P93N, R94F, R96L
notes: parent clone
B13: anti-TIGIT antibody clone 29478 (IgG) (antibody, V domains shown)
VH: EVQLVESGGGVVQPGRSLRLSCAASGFTFESYGMVWVRQAPGKGLEWVASILYDGSNRYYADSVKGRFTVSRDNSKNTLYLQMNSLRAEDTAVYYCARVSYYYDSVELRWAEYFQHWGQGTLVTVSS
VL: B6 VL with N53K, E91V, N92H, P93N, R94F, R96L
B14: anti-TIGIT antibody clone 26432 (IgG) (antibody, V domains shown)
VH: QVQLVQSGAEVKKPGSSVKVSCKASGGTFSSYAISWVRQAPGQGLEWMGGIIPIFGTANYAQKFQGRVTITADESTSTAYMELSSLRSEDTAVYYCAREAQSYRVPFDIWGQGTMVTVSS
VL: EIVMTQSPATLSVSPGERATLSCRASQSVSSNLAWYQQKPGQAPRLLIYGASTRATGIPARFSGSGSGTEFTLTISSLQSEDFAVYYCQQYAIWPPFTFGGGTKVEIK
notes: also called parental clone 26432
B15: anti-TIGIT antibody clone 32931 (IgG) (antibody, V domains shown)
VH: B2 VH with V2L, M120T
VL: B2 VL with Q27K, G50F, S91T, P92S
notes: human IgG; light chain optimised from 31288
B16: anti-TIGIT antibody clone 32919 (IgG) (antibody, V domains shown)
VH: B2 VH with V2L, M120T
VL: B6 VL
notes: as for B15

Biological target: T1, Mouse TIGIT-Fc
Assay: ForteBio BLI, Fab KD, monovalent

| Kd [nM] | Binder |
| --- | --- |
| 18.9 | B1 |
| 53.6 | B2 |
| 25.5 | B3 |

Biological target: T6, Cyno TIGIT-Fc (cynomolgus, UniProt A0A7N9I9V4 89-209)
T6 construct: not shown: Fc part
T6 sequence (A0A7N9I9V4 entry or part of it): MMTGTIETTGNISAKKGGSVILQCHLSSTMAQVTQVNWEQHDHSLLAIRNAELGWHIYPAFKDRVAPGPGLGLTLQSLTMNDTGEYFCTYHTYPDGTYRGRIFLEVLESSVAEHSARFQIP
Assay: ForteBio BLI, Fab KD, monovalent

| Kd [nM] | binding result | Binder |
| --- | --- | --- |
| 27.9 | – | B1 |
| 25.1 | – | B4 |
| – | no binding | B5 |
| 6.57 | – | B6 |
| 18.6 | – | B2 |
| 1.97 | – | B7 |
| 14.5 | – | B3 |
| 149 | – | B8 |
| 4.47 | – | B9 |

Biological target: T2, Human TIGIT-His
Assay: ForteBio BLI, Fab KD, monovalent

| Kd [nM] | Binder |
| --- | --- |
| 3.84 | B1 |
| 2.09 | B4 |
| 21.9 | B5 |
| 1.42 | B6 |
| 1.66 | B2 |
| 1.18 | B7 |
| 1.66 | B3 |
| 9.87 | B8 |
| 1.24 | B9 |

Biological target: T3, mouse TIGIT expressed on cells
Assay: flow cytometry, 100 nM Ab, Jurkat-mTIGIT vs untransfected
Description: (§1) Antibodies were incubated with the cells for 20 min at 4° C. in FACS buffer. […] Geometric mean fluorecence intensity was analysed using LSR BD Fortessa. Cell binding was recorded as the median florescence intensity of PE on the transfected line compared to the un-transfected line for each antibody (Table 3).

| FON (Fold Over Negative) [fold] | Binder |
| --- | --- |
| 199 | B10 |
| 218 | B11 |
| 233 | B12 |
| 500 | B13 |

Biological target: T4, Human TIGIT-Fc
Assay: ForteBio BLI, IgG KD, avid
Description: Briefly, ForteBio affinity measurements were performed by loading IgGs on-line onto AHQ sensors. Sensors were equilibrated off-line in assay buffer for 30 min and then monitored on-line for 60 seconds for baseline establishment. Sensors with loaded IgGs were exposed to 100 nM antigen (human TIGIT-Fc, human TIGIT-His or cyno TIGIT-Fc) for 5 minutes, afterwards they were transferred to assay buffer for 5 min for off-rate measurement. Kinetics were analyzed using the 1:1 binding model.

| Kd [nM] | Binder |
| --- | --- |
| 0.589 | B10 |
| 4.62 | B14 |
| 0.541 | B11 |
| 0.63 | B12 |
| 0.527 | B13 |

Biological target: T5, human TIGIT expressed on cells
Assay: cell-based or functional assay

| EC50 of Jurkat-hTIGIT cell activation (luciferase), FIG. 12B [nM] | Binder |
| --- | --- |
| 3.2 | B15 |
| 2.7 | B16 |

Biological target: T5, human TIGIT expressed on cells
Assay: flow cytometry, 100 nM Ab, Jurkat-hTIGIT vs untransfected
Description: as §1

| FON (Fold Over Negative) [fold] | Binder |
| --- | --- |
| 143 | B10 |
| 741 | B15 |
| 146 | B11 |
| 154 | B12 |
| 182 | B13 |
| 680 | B16 |

Biological target: T5, human TIGIT expressed on cells
Assay: cell-based or functional assay
Remark: another data set of the same source

| Induction over Isotype control (fold change), luciferase, Jurkat-hTIGIT + CHO-TCR-CD155, 133 nM [fold] | Binder |
| --- | --- |
| 1.9 | B10 |
| 2.66 | B11 |
| 2.89 | B12 |
| 3.57 | B13 |
